Ends that are not written are not given here.
Legend:
Assay in all cases: ELISA; called peptide array: biotinylated peptides immobilised on streptavidin-coated 96-well plates; 1 μM His6-mATG8 in PBS, 0.1% Tween-20, 1% BSA, 1 h, 8°C; anti-His-HRP, TMB, absorbance at 450 nm
Conditions in all cases: both partners purified
[1] = target: T1, 6xHis‐tagged GABARAP‐L1 (human, UniProt Q9H0R8 1-117)
T1 construct: GABARAP-L1, human; also called His6‐GABARAP‐L1; source: E. coli, isolated

[2] = target: T2, 6xHis‐tagged LC3C (human, UniProt Q9BXW4 1-126)
T2 construct: LC3C, human; also called His6‐LC3C; source: E. coli, isolated
T2 sequence (Q9BXW4 1-126): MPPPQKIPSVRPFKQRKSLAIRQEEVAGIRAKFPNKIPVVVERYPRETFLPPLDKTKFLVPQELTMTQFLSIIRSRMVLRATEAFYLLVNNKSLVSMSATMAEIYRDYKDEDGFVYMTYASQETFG

[3] = target: 6xHis‐tagged LC3B (human, UniProt Q9GZQ8 1-120)
[4] = target: T3, 6xHis‐tagged GABARAP‐L2 (human, UniProt P60520 1-117)
T3 construct: GABARAP-L2/GATE-16, human; also called His6‐GABARAP‐L2; GATE‐16; source: E. coli, isolated
T3 sequence (P60520 whole entry): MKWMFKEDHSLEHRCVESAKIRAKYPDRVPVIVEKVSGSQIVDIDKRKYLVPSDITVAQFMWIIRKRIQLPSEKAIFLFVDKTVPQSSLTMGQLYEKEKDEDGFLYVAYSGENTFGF

[5] = target: T4, 6xHis‐tagged GABARAP (human, UniProt O95166 1-117)
T4 construct: GABARAP, human; also called His6‐GABARAP; source: E. coli, isolated
T4 sequence (O95166 whole entry): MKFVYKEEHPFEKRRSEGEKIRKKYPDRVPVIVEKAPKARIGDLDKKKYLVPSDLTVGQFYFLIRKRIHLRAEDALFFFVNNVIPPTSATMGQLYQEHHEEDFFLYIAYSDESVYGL

[6] = target: T5, 6xHis‐tagged LC3A (human, UniProt Q9H492 1-121)
T5 construct: LC3A (MAP1LC3A), human; also called His6‐LC3A; MAP1LC3A; source: E. coli, isolated

Measured: binding result

T1 sequence (Q9H0R8 whole entry, looked up): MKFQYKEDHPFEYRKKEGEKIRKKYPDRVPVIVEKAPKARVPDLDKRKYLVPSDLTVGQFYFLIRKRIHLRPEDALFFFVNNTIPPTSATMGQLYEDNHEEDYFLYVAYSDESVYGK

B1: PLEKHM1‐LIR N637C peptide (biotinylated 9-mer) (peptide, UniProt Q9Y4G2 632-640, looked up)
peptide: EDEWVCVQY
modifications: also: biotinylated
notes: PLEKHM1 LIR; source: bought: JPT (biotinylated peptide)
binds: all assays above

B2: PLEKHM1‐LIR V636C peptide (biotinylated 9-mer) (peptide, UniProt Q9Y4G2 632-640, looked up)
peptide: EDEWCNVQY
modifications: also: biotinylated
notes: as for B1
binds: all assays above

B3: PLEKHM1‐LIR V638L peptide (biotinylated 9-mer) (peptide, UniProt Q9Y4G2 632-640, looked up)
peptide: EDEWVNLQY
modifications: also: biotinylated
notes: as for B1
binds: all assays above

B4: PLEKHM1‐LIR N637W peptide (biotinylated 9-mer) (peptide, UniProt Q9Y4G2 632-640, looked up)
peptide: EDEWVWVQY
modifications: also: biotinylated
notes: as for B1
binds: all assays above

B5: PLEKHM1‐LIR W635F peptide (biotinylated 9-mer) (peptide, UniProt Q9Y4G2 632-640, looked up)
peptide: EDEFVNVQY
modifications: also: biotinylated
notes: as for B1
binds: all assays above

B6: PLEKHM1‐LIR N637Y peptide (biotinylated 9-mer) (peptide, UniProt Q9Y4G2 632-640, looked up)
peptide: EDEWVYVQY
modifications: also: biotinylated
notes: as for B1
binds: all assays above

B7: PLEKHM1‐LIR WT peptide (EDEWVNVQY), biotinylated (peptide)
peptide: EDEWVNVQY
modifications: also: biotinylated
notes: PLEKHM1 LIR; also called PLEKHM1 LIR 632–640; source: bought: JPT (biotinylated peptide)
binds: all assays above

B8: PLEKHM1‐LIR N637F peptide (biotinylated 9-mer) (peptide, UniProt Q9Y4G2 632-640, looked up)
peptide: EDEWVFVQY
modifications: also: biotinylated
notes: as for B1
binds: all assays above

B9: PLEKHM1‐LIR N637I peptide (biotinylated 9-mer) (peptide, UniProt Q9Y4G2 632-640, looked up)
peptide: EDEWVIVQY
modifications: also: biotinylated
notes: as for B1
binds: all assays above

B10: PLEKHM1‐LIR N637V peptide (biotinylated 9-mer) (peptide, UniProt Q9Y4G2 632-640, looked up)
peptide: EDEWVVVQY
modifications: also: biotinylated
notes: as for B1
binds: all assays above

B11: PLEKHM1‐LIR N637L peptide (biotinylated 9-mer) (peptide, UniProt Q9Y4G2 632-640, looked up)
peptide: EDEWVLVQY
modifications: also: biotinylated
notes: as for B1
binds: all assays above

B12: PLEKHM1‐LIR W635Y peptide (biotinylated 9-mer) (peptide, UniProt Q9Y4G2 632-640, looked up)
peptide: EDEYVNVQY
modifications: also: biotinylated
notes: as for B1
binds: all assays above
